Biological target: FabXol3 (omalizumab-derived Fab with three point mutations)
Assay: SPR; FabXol3, FabXol or intact omalizumab amine-coupled at low density; IgE-Fc flowed over, 2-fold dilutions from 100 nM; 20 mM HEPES pH 7.4, 150 mM NaCl, 0.005% P-20; 25 °C; monophasic kinetics at low concentrations

Kd: 1 nM | koff: 0.0008 s⁻¹ | kon: 1.2e+06 M⁻¹ s⁻¹
B1: IgE-Fc, P01854 105-427 (domain or fragment)
chain: DIVASRDFTPPTVKILQSSCDGGGHFPPTIQLLCLVSGYTPGTIQITWLEDGQVMDVDLSTASTTQEGELASTQSELTLSQKHWLSDRTYTCQVTYQGHTFEDSTKKCADSNPRGVSAYLSRPSPFDLFIRKSPTITCLVVDLAPSKGTVQLTWSRASGKPVNHSTRKEEKQRNGTLTVTSTLPVGTRDWIEGETYQCRVTHPHLPRALMRSTTKTSGPRAAPEVYAFATPEWPGSRDKRTLACLIQNFMPEDISVQWLHNEVQLPDARHSTTQPRKTKGSGFFVFSRLEVTRAEWEQKDEFICRAVHEAASPSQTVQRAVSVNPGK
modifications: not checked
